From patent US20160237162A1 (AstraZeneca / MedImmune, published 2016)
Residue numbers refer to the chain shown, from its start. Names may count otherwise.

B1: 1A4 antibody, human IgG1 (antibody, V domains shown)
VH: EVQLLESGGGLVQPGGSLRLSCAASGFTFSYYYMQWVRQAPGKGLEWVSYIGSSGGVTNYADSVKGRFTISRDNSKNTLYLQMNSLRAEDTAVYYCARVGLGDAFDIWGQGTMVTVSS
VL: QSVLTQPPSASGTPGQRVTISCSGSSSNIGLNYVSWYQQLPGTAPKLLISRNNQRPSGVPDRFSGSKSGTSASLAISGLRSEDEADYYCAAWDDSPPGEAFGGGTKLTVL
notes: IgG1, lambda
B2: 2C2-YTE monoclonal antibody (antibody, human IgG1, V domains shown)
VH: B1 VH
VL: B1 VL with S26L
B3: Clone 16 antibody (CL16), human IgG1 (antibody, V domains shown)
VH: B1 VH
VL: B1 VL with S2Y, V3E, I20M, P96L, P97S, A100V
notes: also called parental IgG; Clone 16-PA
B4: clone 8A3 Fab (Fab, V domains shown)
VH: B1 VH
VL: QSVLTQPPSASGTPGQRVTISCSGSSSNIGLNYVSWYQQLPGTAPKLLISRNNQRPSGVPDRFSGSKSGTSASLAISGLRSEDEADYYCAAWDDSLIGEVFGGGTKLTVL
notes: Fab, single VL mutant (S96aI) of GL-P6
B5: clone 2D1 Fab (Fab, V domains shown)
VH: B1 VH
VL: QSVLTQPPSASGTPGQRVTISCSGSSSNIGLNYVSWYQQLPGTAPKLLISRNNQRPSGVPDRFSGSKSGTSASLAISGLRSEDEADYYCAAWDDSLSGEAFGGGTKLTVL
notes: Fab, single VL mutant (V97A) of GL-P6
B6: 2C2 monoclonal antibody, human IgG1 (antibody, V domains shown)
VH: B1 VH
VL: B1 VL with S26L
B7: P2B11 antibody, human IgG1 (antibody, V domains shown)
VH: B1 VH
VL: not shown
B8: clone 6E3 Fab (Fab, V domains shown)
VH: B1 VH
VL: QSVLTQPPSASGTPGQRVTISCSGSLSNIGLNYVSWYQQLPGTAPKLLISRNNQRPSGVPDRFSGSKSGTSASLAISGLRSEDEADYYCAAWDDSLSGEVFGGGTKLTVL
notes: Fab, single VL mutant (S27L) of GL-P6
B9: clone 4H6 Fab (Fab, V domains shown)
VH: B1 VH
VL: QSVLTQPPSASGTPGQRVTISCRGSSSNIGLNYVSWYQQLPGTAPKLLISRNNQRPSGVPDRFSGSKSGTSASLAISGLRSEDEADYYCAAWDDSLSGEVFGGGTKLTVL
notes: Fab, single VL mutant (S24R) of GL-P6
B10: 2F10 antibody, human IgG1 (antibody, V domains shown)
VH: B1 VH
VL: B1 VL with P97S
B11: 3E1 antibody, human IgG1 (antibody, V domains shown)
VH: B1 VH
VL: B1 VL with S23R
notes: IgG1, lambda
B12: clone 4C4 Fab (Fab, V domains shown)
VH: B1 VH
VL: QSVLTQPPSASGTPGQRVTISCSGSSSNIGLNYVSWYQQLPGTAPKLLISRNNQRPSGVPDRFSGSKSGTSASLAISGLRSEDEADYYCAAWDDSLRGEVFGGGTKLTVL
notes: Fab, single VL mutant (S96aR) of GL-P6

Assays:
[1] = molecular target: T1, human HER3 on human cancer cells (human, UniProt P21860 20-1342); test: cell-based or functional assay
[2] = molecular target: T2, Recombinant mouse HER3(ECD)/Fc chimera (mouse, UniProt Q61526 20-641); test: ELISA with purified IgG on murine HER3
T2 construct: Generated in house; also called murine HER3 (as a HER3-Fc fusion); murine HER3; not shown: Fc part and any linker or tag of the in-house chimera

[3] = molecular target: T1, human HER3 on human cancer cells; test: cell-based or functional assay; remark: listed apart in the source
[4] = molecular target: T1, human HER3 on human cancer cells; test: cell-based or functional assay; remark: listed apart in the source
[5] = molecular target: T3, Recombinant human HER3(ECD)/Fc chimera (human, UniProt P21860 20-643, biotinylated in the capture ELISA of section 1.9); test: HRG-HER3 ELISA: plate coated with HRG, antibody dilutions premixed with 5 ug/ml recombinant HER3, bound HER3 detected by anti-His HRP; blocked ligand HRG
T3 construct: extracellular domain; Bought (R&D Systems); The ELISA sections say only 'recombinant HER3 protein' / 'biotinylated HER3 protein' / 'recombinant HER3'; also called recombinant HER3 protein; biotinylated HER3 protein; not shown: Fc, linker peptide and C-terminal 6x Histidine-tag

[6] = molecular target: T3, Recombinant human HER3(ECD)/Fc chimera; test: Fab capture ELISA with biotinylated HER3, against GL-P6
Procedure: (§1) Briefly, this capture ELISA involved coating individual wells of a 96-well Maxisorp Immunoplate with approximately 50 ng of a sheep anti-human Fd antibody (Biodesign International, ME) in a carbonate buffer at pH 8.5 overnight at 4° C. The next day, the plate was blocked with 3% BSA in PBS buffer for 1 h at room temperature. Fab supernatant was then added to the plate and incubated at room temperature for 1 hr. After washing, 0.1 μg of biotinylated HER3 protein was added to the well and the mixture was incubated for 1.5 h at room temperature. This was followed by incubation with neutravidin-horseradish peroxydase (HRP) conjugate (Pierce, Ill.) for approximately 40 min at room temperature. HRP activity was detected with tetra-methyl-benzidine (TMB) substrate and the reaction quenched with 0.2 M H₂SO₄. Plates were read at 450 nm.
(§2) The Fab concentration was determined by comparing the ELISA signals with the signals generated by the reference Fab.

[7] = molecular target: T3, Recombinant human HER3(ECD)/Fc chimera; test: Fab capture ELISA with biotinylated HER3
Procedure: as §1, §2

[8] = molecular target: T1, human HER3 on human cancer cells; test: cell-based or functional assay; remark: listed apart in the source
[9] = molecular target: T1, human HER3 on human cancer cells; test: cell-based or functional assay; remark: listed apart in the source
[10] = molecular target: T1, human HER3 on human cancer cells; test: cell-based or functional assay; remark: listed apart in the source
[11] = molecular target: T1, human HER3 on human cancer cells; test: cell-based or functional assay; remark: listed apart in the source
[12] = molecular target: T1, human HER3 on human cancer cells; test: cell-based or functional assay; remark: listed apart in the source
[13] = molecular target: T1, human HER3 on human cancer cells; test: cell-based or functional assay; remark: listed apart in the source
[14] = molecular target: T1, human HER3 on human cancer cells; test: cell-based or functional assay; remark: listed apart in the source
[15] = molecular target: T1, human HER3 on human cancer cells; test: cell-based or functional assay; remark: listed apart in the source

| Binder | BT474 6-day growth % Max inhibition [1] [%] | BT474 clonogenic assay % Max inhibition [1] [%] | BT474 pAKT assay % Max inhibition [1] [%] | T47D HRG inducible pHer3 % Max inhibition [1] [%] | other results |
| --- | --- | --- | --- | --- | --- |
| B1 | 54.5 | 81.3 | 62 | 84 | binding result [2]: binds |
| B2 |  |  |  |  | IC50 (read off the curve); suppression of pHER3 (pHER3 ELISA), BT-474 cells [3]: ~0.003 ug/ml; IC50 (read off the curve); suppression of pAKT (Meso-Scale Discovery assay), BT-474 cells [4]: ~0.003 ug/ml |
| B3 | 46 | 79.8 | 64 | 75 | IC50 (read off the curve) [5]: ~0.6 µg/mL |
| B4 |  |  |  |  | fold binding improvement [6]: 3.5 fold |
| B5 |  |  |  |  | binding result [7]: binds |
| B6 |  | 87.2 | 61 | 85 | IC50; growth suppression (CellTiter-Glo, 6 days), HMCB melanoma cells [8]: 0.027 µg/mL; IC50; suppression of pHER3 (pHER3 ELISA), BT-474 cells [3]: 0.004 ug/ml; IC50; suppression of pHER3 (pHER3 ELISA), Kato III cells [9]: 0.8 ng/ml; HRG-induced pHER3 ELISA in MCF-7 cells; potency by IC50 against MM and AMG [10]: ~5 fold; IC50; suppression of pAKT (Meso-Scale Discovery assay), MKN45 cells [11]: 2.9 ng/ml; IC50; suppression of pHER3 (pHER3 ELISA), HCC827 cells [12]: 2 ng/ml; IC50; suppression of pAKT (Meso-Scale Discovery assay), BT-474 cells [4]: 0.003 ug/ml; IC50; suppression of pAKT (Meso-Scale Discovery assay), Kato III cells [13]: 0.9 ng/ml; IC50; suppression of pHER3 (pHER3 ELISA), EGFR-TKI (gefitinib)-resistant HCC827 cells [14]: 3.5 ng/ml; IC50; suppression of HRG-induced pHER3 (pHER3 ELISA), MCF-7 cells [15]: 8.4 ng/ml |
| B7 | 47.5 | 87.1 | 62 | 85 |  |
| B8 |  |  |  |  | binding result [7]: binds |
| B9 |  |  |  |  | binding result [7]: binds |
| B10 | 49 | 80.4 | 62 | 86 |  |
| B11 | 48.1 | 79.2 | 66 | 86 | binding result [2]: binds |
| B12 |  |  |  |  | fold binding improvement [6]: 8.6 fold |
